The values that follow come from paper doi:10.1101/2022.02.18.481027, “Structural insights into the assembly and activation of IL-27 signalling complex” (bioRxiv, 2022).

Experiment [1] has as its target T1, Murine IL-27Rα ectodomain (amino acids 28-224), N-terminally biotinylated (murine, UniProt O70394 28-224, N-terminal biotin (EZ-Link Sulfo-NHS-SS-Biotin, at pH 6.5)).
T1 chain: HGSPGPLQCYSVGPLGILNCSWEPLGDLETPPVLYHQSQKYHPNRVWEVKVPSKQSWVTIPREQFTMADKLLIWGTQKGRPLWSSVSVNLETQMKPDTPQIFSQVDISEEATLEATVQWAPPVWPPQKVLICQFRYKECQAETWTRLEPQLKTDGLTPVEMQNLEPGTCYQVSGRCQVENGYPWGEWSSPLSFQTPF
The experiment in a line: SPR.

Experiment [2] has as its target T2, Murine GP130 ectodomain with C-terminal biotin acceptor peptide, biotinylated (murine, UniProt Q00560 23-319, biotin on the biotin acceptor peptide (BirA ligase)).
T2 chain: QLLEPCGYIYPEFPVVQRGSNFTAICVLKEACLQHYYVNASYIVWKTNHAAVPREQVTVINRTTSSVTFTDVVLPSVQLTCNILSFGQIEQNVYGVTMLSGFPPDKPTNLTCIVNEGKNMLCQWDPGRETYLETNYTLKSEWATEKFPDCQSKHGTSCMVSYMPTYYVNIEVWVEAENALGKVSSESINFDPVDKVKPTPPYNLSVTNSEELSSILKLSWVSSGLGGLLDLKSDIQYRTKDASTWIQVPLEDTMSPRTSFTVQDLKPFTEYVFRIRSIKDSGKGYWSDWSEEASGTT
The experiment in a line: SPR.

For experiment [3], the target named is T3, p28 (IL-27p28), recombinant, alone (murine, UniProt Q8K3I6 29-234).
T3 construct: IL-27p28 (p28) without EBI3; the construct is not described; The methods of expression name no p28 construct; source: recombinantly produced
T3 sequence (looked up): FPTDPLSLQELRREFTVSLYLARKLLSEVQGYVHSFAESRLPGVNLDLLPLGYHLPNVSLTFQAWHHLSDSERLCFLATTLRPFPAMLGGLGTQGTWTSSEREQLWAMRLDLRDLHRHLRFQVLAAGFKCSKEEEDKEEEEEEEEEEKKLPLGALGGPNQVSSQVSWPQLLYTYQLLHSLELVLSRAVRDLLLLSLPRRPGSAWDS
The experiment in a line: SPR; biotinylated IL-27Rα or GP130 immobilised on a streptavidin chip (Series S Sensor SA), p28 flowed over; equilibrium analysis; 10 mM HEPES, 150 mM NaCl, 0.05% TWEEN-20, 0.5% BSA; Biacore T100. Conditions: both partners purified.

B1: Murine IL-27, linker-connected single-chain variant (p28+EBI3) (ligand)
chain 1: YTETALVALSQPRVQCHASRYPVAVDCSWTPLQAPNSTRSTSFIATYRLGVATQQQSQPCLQRSPQASRCTIPDVHLFSTVPYMLNVTAVHPGGASSSLLAFVAERIIKPDPPEGVRLRTAGQRLQVLWHPPASWPFPDIFSLKYRLRYRRRGASHFRQVGPIEATTFTLRNSKPHAKYCIQVSAQDLTDYGKPSDWSLPGQVESAPHKP
chain 2: FPTDPLSLQELRREFTVSLYLARKLLSEVQGYVHSFAESRLPGVNLDLLPLGYHLPNVSLTFQAWHHLSDSERLCFLATTLRPFPAMLGGLGTQGTWTSSEREQLWAMRLDLRDLHRHLRFQVLAAGFKCSKEEEDKEEEEEEEEEEKKLPLGALGGPNQVSSQVSWPQLLYTYQLLHSLELVLSRAVRDLLLLSLPRRPGSAWDS
For B1, the dissociation rate constant (koff) was 0.001 s⁻¹ in experiment [1] and 0.021 s⁻¹ in experiment [2].

B2: Murine IL-27Rα ectodomain (amino acids 28-224), N-terminally biotinylated (receptor, UniProt O70394 28-224, looked up)
chain: HGSPGPLQCYSVGPLGILNCSWEPLGDLETPPVLYHQSQKYHPNRVWEVKVPSKQSWVTIPREQFTMADKLLIWGTQKGRPLWSSVSVNLETQMKPDTPQIFSQVDISEEATLEATVQWAPPVWPPQKVLICQFRYKECQAETWTRLEPQLKTDGLTPVEMQNLEPGTCYQVSGRCQVENGYPWGEWSSPLSFQTPF
modifications: N-terminal biotin (EZ-Link Sulfo-NHS-SS-Biotin, at pH 6.5)
notes: murine IL-27Rα, amino acids 28-224; also called biotinylated IL-27Rα; source: baculovirus, Trichoplusia ni (High Five) cells, secreted, purified (Ni-NTA, SEC), biotinylated in vitro
With B2, the Kd in experiment [3] was 2.8 µM.
